The results in this text go back to PMC9975939.

In one test the target is FIP200-GFP. Put plainly: bead recruitment assay (confocal imaging of FIP200-GFP on beads). To be noted: glutathione Sepharose beads coated with GST-4xUb, incubated with untagged NDP52 and FIP200-GFP; read off a plot.
The target in test [1] is His-Flag-NDP52 C18, 153, 163, 321S (human) (UniProt Q13137). In words: native gel or EMSA; blue native PAGE of lysates (30 μg; 20 mM Bis-Tris pH 7.2, 40 mM NaCl, 10% glycerol, 0.5% NP-40) of HeLa PentaKO cells stably expressing NDP52 WT or Mut, immunoblot.
Test [2] concerns the target untagged NDP52 C18, 153, 163, 321S mutant (human) (UniProt Q13137). In words: native gel or EMSA; blue native PAGE (4–16% NativePAGE gel, Coomassie G-250) of recombinant NDP52 WT and Mut, immunoblot. (Mobility shift assays separate free from complexed probe on a gel.)

A word on the stoichiometry N: it is the number of molecules, sites or subunits per partner or assembly.

For “untagged NDP52 wild type mutant C18S; C153S; C163S; C321S [human] / FIP200-GFP [not stated] chain 1 C18S, chain 1 C153S, chain 1 C163S, chain 1 C321S”, the percent of parent with FIP200-GFP came to 93%. Consider “His-Flag-NDP52 C18, 153, 163, 321S (from UniProt Q13137 1-446) (natural protein)”, for which, in test [1], the stoichiometry N is 2. “untagged NDP52 C18, 153, 163, 321S mutant (from UniProt Q13137 1-446) (natural protein)”: in test [2], the stoichiometry N was determined as 2.
